Entries after “also recorded” stand apart in the source; their conditions may differ. Like-named read-outs stand apart in the source and are kept apart here.
Legend:
[1] = target: T1, C3G-derived synthetic peptide (Homo sapiens, UniProt Q13905); assay: C3G-derived synthetic peptide affinity column binding with MALDI readout; conditions: Gly-[COS]-βAla analogue unit; 19-member array, residues 146-165 of c-Crk SH3 domain (Example 3)
T1 construct: made in house; host or cells: chemical synthesis on 4-methyl benzhydrylamine resin
Procedure: An affinity column carrying a synthetic C3G derived peptide was prepared by reaction of the cysteine side chain of Acetyl-CWAcp-[…].amide (SEQ NO ID NO 14) with an iodoacetylated agarose matrix. The linker Acetyl-CWAcp- was designed to combine a reactive sulfhydryl on the Cys sidechain with a spectroscopic tag in the Trp residue, and to introduce a flexible spacer region between the support and the peptide ligand in the form of ε-aminocaproic acid. The amount of peptide on the column, was determined as 5 μmol/mL of the swollen agarose matrix from the absorbance at 280 nm of the peptide solution before and after reaction with the column.
The column was then washed with 0.5 M NaCl buffer to remove nonspecific binding proteins from the column. Specifically bound protein analogues were then eluted with 1 M hydroxylamine bufffer. Amounts of eluted peptide were monitored by UV absorbance at 280 nm. This procedure was used for both the C3G peptide column and for the control column loaded with Ac-C-AcpYGGFL.amide. The hydroxylamine cleavage of the thioester bond results in the elution of peptide fragments corresponding to the proteins which were able to bind to the affinity column under these conditions. Specific binding was found only for the C3G peptide column.
The composition of the parent array of SH3 protein analogues, as well as the binding and non-binding fractions obtained from affinity chromatography was determined by chemical cleavage and MALDI MS. First, the parent array of folded protein analogues and the 0.5 M NaCl wash from the affinity chromatography of the array were cleaved separately with hydroxylamine. After a desalting step, MALDI mass spectra were obtained for the peptide fragments generated from the (parent) protein array, the salt wash (non-binding) and for the peptide fragments generated by the hydroxylamine elution of the specifically bound analogues (binding). Nine components were present in the array of protein analogues that was added to the C3G column as one mixture (FIG. 26A). […] Three protein analogues, however, were able to bind to the C3G peptide on the column and were eluted only after cleavage with hydroxylamine (FIG. 26C). One of the protein analogues can be identified in both the wash and elution spectra, indicating intermediate folding and/or binding properties for this analogue.
The C3G-derived synthetic peptide affinity column was prepared by adding 10 mg of lyophilized Ac-CWAcp[…].amide (SEQ ID NO 24) (Acp=ε-amino caproic acid) in 2 mL of 50 mM Tris, 5 mM EDTA, pH 8.0 buffer to Sulfolink™ resin (Pierce), equilibrated in the same buffer, for 1 hour while shaking. Unreacted iodoalkyl groups on the resin were then blocked by treatment with 50 mM cystamine, 50 mM Tris, 5 mM EDTA, pH 8.0 buffer for 1 hour. The loading of the column was determined by UV absorbance of the unreacted peptide solution and was approximately 5 μmol/mL. A similar procedure was used to attach the control peptide Ac-CAcpYGGFL.amide (SEQ ID NO 25) to the another batch of the Sulfolink™ support.
Lyophilized crude synthetic polypeptide corresponding to the cCrk SH3 domain (1.5 mg) and BSA (8.5 mg) were dissolved in 20 mM HEPES, 50 mM NaCl, pH 7.3 buffer (400 μL) and loaded on to a 1 mL C3G-derived synthetic peptide affinity column pre-equilibrated with the same buffer. The column was washed with 4 mL each of 50 mM NaCl, 100 mM NaCl, 200 mM NaCl, 300 mM NaCl, 400 mM NaCl, 500 mM NaCl and 1000 mM NaCl, 0.1 M phosphate, pH 7.0 buffer. The column was then washed with 1 M NH2OH 200 mM NH4CO3 pH 6.0 (4 mL) and finally eluted in 6M Gn.HCl 100 mM phosphate pH 6.5 (4 mL). Samples from all column fractions were monitored by absorbance at 280 nm and by HPLC.
Affinity chromatography of the arrays of protein analogues was carried out as follows. […]

C3G-peptide [2] = target: T2, C3G-peptide (Homo sapiens, UniProt Q13905); assay: Binding of Crk-N to the C3G-peptide in solution; conditions: purified synthetic Crk-N
T2 construct: made in house; host or cells: chemical synthesis
Excerpt: FIG. 3 illustrates preliminary iterative signature analysis data on residues 156-165 of the peptide Crk-N. a) Represents a comparison of the elution profiles obtained for the protein family using a C3G-peptide agarose column and a Leucine-Enkephalin agarose column (control). […] Single letters refer to amino acid pairs substituted with the -Gly-SCH2CH2CO— marker. d) Comparison of the MALDI MS spectra of the ammonium acetate wash and the entire 9 component synthetic Crk-N family cleaved with ammonium acetate. In both cases the N-terminal peptide ladder is observed at a much higher intensity than the equimolar C-terminal peptide ladder.
The folded protein was structurally characterized by NMR and crystallization (The folded protein was characterized by two dimensional NOESY 1H NMR spectroscopy. In addition, the synthetic protein solution used for NMR analysis spontaneously formed crystals upon storage at 4° C. These crystals diffracted to >2.3 Å allowing for the solution by molecular replacement. Refinement of the structure is in progress). The resulting synthetic protein domain was then assayed for its affinity for two different proline-rich peptides. […] This change in solvent exposure leads to an increase in the fluorescence intensity of the tryptophan sidechain which can be monitored as a function of increasing ligand concentration (Feng et al. Science 1994.266, 1241-1245). […]

C3G-peptide [3] = target: T2, C3G-peptide; conditions: recombinant Crk-N; read-out: KD for binding the C3G-peptide in solution; cited from earlier work

| Compound | binding to C3G peptide affinity column, active (binding) pool [1] | also measured |
| --- | --- | --- |
| K^164P^165: c-Crk SH3 domain analogue, dipeptide K164P165 replaced by Gly-[COS]-βAla | displayed appreciable binding; also recorded: without significant loss of binding activity | – |
| E^148E^149: c-Crk SH3 domain analogue, dipeptide E148E149 replaced by Gly-[COS]-βAla | displayed appreciable binding | – |
| N^146D^147: c-Crk SH3 domain analogue, dipeptide N146D147 replaced by Gly-[COS]-βAla | displayed appreciable binding | – |
| R^162D^163: c-Crk SH3 domain analogue, dipeptide R162D163 replaced by Gly-[COS]-βAla | displayed appreciable binding; also recorded: without significant loss of binding activity | – |
| CC[C@H](C)[C@H](NC(=O)[C@H](CC(=O)O)NC(=O)CNC(=O)[C@H](CCCCN)NC(=O)[C@H](CCCCN)NC(=O)[C@H](Cc1ccccc1)NC(=O)[C@@H]1CCCN1C(=O)[C@H](CC(C)C)NC(=O)[C@H](CC(=O)O)NC(=O)[C@H](CCC(=O)O)NC(=O)[C@H](CCC(=O)O)NC(=O)[C@H](CC(=O)O)NC(=O)[C@H](CC(N)=O)NC(=O)CNC(=O)[C@H](CC(N)=O)NC(=O)[C@H](Cc1ccccc1)NC(=O)[C@H](CC(=O)O)NC(=O)[C@H](Cc1ccccc1)NC(=O)[C@H](CC(C)C)NC(=O)[C@H](C)NC(=O)[C@H](CCCNC(=N)N)NC(=O)[C@@H](NC(=O)[C@H](Cc1ccc(O)cc1)NC(=O)[C@H](CCC(=O)O)NC(=O)[C@H](C)N)C(C)C)C(=O)N[C@@H](CC(C)C)C(=O)N[C@@H](CCCNC(=N)N)C(=O)N[C@H](C(=O)N[C@@H](CCCNC(=N)N)C(=O)N[C@@H](CC(=O)O)C(=O)N[C@@H](CCCCN)C(=O)N1CCC[C@H]1C(=O)N[C@@H](CCC(=O)O)C(=O)N[C@@H](CCC(=O)O)C(=O)N[C@@H](CCC(N)=O)C(=O)N[C@@H](Cc1c[nH]c2ccccc12)C(=O)N[C@@H](Cc1c[nH]c2ccccc12)C(=O)N[C@@H](CC(N)=O)C(=O)N[C@@H](C)C(=O)N[C@@H](CCC(=O)O)C(=O)N[C@@H](CC(=O)O)C(=O)N[C@@H](CO)C(=O)N[C@@H](CCC(=O)O)C(=O)NCC(=O)N[C@@H](CCCCN)C(=O)N[C@@H](CCCNC(=N)N)C(=O)NCC(=O)N[C@@H](CCSC)C(=O)N[C@H](C(=O)N1CCC[C@H]1C(=O)N[C@H](C(=O)N1CCC[C@H]1C(=O)N[C@@H](Cc1ccc(O)cc1)C(=O)N[C@H](C(=O)N[C@@H](CCC(=O)O)C(=O)N[C@@H](CCCCN)C(=O)N[C@@H](Cc1ccc(O)cc1)C(=O)N[C@@H](CCCNC(=N)N)C(=O)O)C(C)C)C(C)C)[C@@H](C)CC)[C@@H](C)CC [synthetic Crk-N] | – | Kd (C3G-peptide [2]): 2300 nM |
| L^151P^152: c-Crk SH3 domain analogue, dipeptide L151P152 replaced by Gly-[COS]-βAla | displayed appreciable binding | – |
| I^161R^162: c-Crk SH3 domain analogue, dipeptide I161R162 replaced by Gly-[COS]-βAla | displayed appreciable binding; also recorded: without significant loss of binding activity | – |
| recombinant Crk-N: recombinantly derived cCrk SH3 domain reported by Wu et al. Structure 1995 | – | Kd (C3G-peptide [3]): 1900 nM |
| D^147E^148: c-Crk SH3 domain analogue, dipeptide D147E148 replaced by Gly-[COS]-βAla | displayed appreciable binding | – |
| D^163K^164: c-Crk SH3 domain analogue, dipeptide D163K164 replaced by Gly-[COS]-βAla | displayed appreciable binding; also recorded: without significant loss of binding activity | – |
